In publication doi:10.1101/2021.01.04.424714 (bioRxiv, 2021):

B1: bacteriophage T7 gp15 core protein (natural protein, UniProt P03725 1-747, looked up)
chain: MSKIESALQAAQPGLSRLRGGAGGMGYRAATTQAEQPRSSLLDTIGRFAKAGADMYTAKEQRARDLADERSNEIIRKLTPEQRREALNNGTLLYQDDPYAMEALRVKTGRNAAYLVDDDVMQKIKEGVFRTREEMEEYRHSRLQEGAKVYAEQFGIDPEDVDYQRGFNGDITERNISLYGAHDNFLSQQAQKGAIMNSRVELNGVLQDPDMLRRPDSADFFEKYIDNGLVTGAIPSDAQATQLISQAFSDASSRAGGADFLMRVGDKKVTLNGATTTYRELIGEEQWNALMVTAQRSQFETDAKLNEQYRLKINSALNQEDPRTAWEMLQGIKAELDKVQPDEQMTPQREWLISAQEQVQNQMNAWTKAQAKALDDSMKSMNKLDVIDKQFQKRINGEWVSTDFKDMPVNENTGEFKHSDMVNYANKKLAEIDSMDIPDGAKDAMKLKYLQADSKDGAFRTAIGTMVTDAGQEWSAAVINGKLPERTPAMDALRRIRNADPQLIAALYPDQAELFLTMDMMDKQGIDPQVILDADRLTVKRSKEQRFEDDKAFESALNASKAPEIARMPASLRESARKIYDSVKYRSGNESMAMEQMTKFLKESTYTFTGDDVDGDTVGVIPKNMMQVNSDPKSWEQGRDILEEARKGIIASNPWITNKQLTMYSQGDSIYLMDTTGQVRVRYDKELLSKVWSENQKKLEEKAREKALADVNKRAPIVAATKAREAAAKRVREKRKQTPKFIYGRKE
B2: bacteriophage T7 gp16 core protein (natural protein, UniProt P03726 1-1318, looked up)
chain: MDKYDKNVPSDYDGLFQKAADANGVSYDLLRKVAWTESRFVPTAKSKTGPLGMMQFTKATAKALGLRVTDGPDDDRLNPELAINAAAKQLAGLVGKFDGDELKAALAYNQGEGRLGNPQLEAYSKGDFASISEEGRNYMRNLLDVAKSPMAGQLETFGGITPKGKGIPAEVGLAGIGHKQKVTQELPESTSFDVKGIEQEATAKPFAKDFWETHGETLDEYNSRSTFFGFKNAAEAELSNSVAGMAFRAGRLDNGFDVFKDTITPTRWNSHIWTPEELEKIRTEVKNPAYINVVTGGSPENLDDLIKLANENFENDSRAAEAGLGAKLSAGIIGAGVDPLSYVPMVGVTGKGFKLINKALVVGAESAALNVASEGLRTSVAGGDADYAGAALGGFVFGAGMSAISDAVAAGLKRSKPEAEFDNEFIGPMMRLEARETARNANSADLSRMNTENMKFEGEHNGVPYEDLPTERGAVVLHDGSVLSASNPINPKTLKEFSEVDPEKAARGIKLAGFTEIGLKTLGSDDADIRRVAIDLVRSPTGMQSGASGKFGATASDIHERLHGTDQRTYNDLYKAMSDAMKDPEFSTGGAKMSREETRYTIYRRAALAIERPELQKALTPSERIVMDIIKRHFDTKRELMENPAIFGNTKAVSIFPESRHKGTYVPHVYDRHAKALMIQRYGAEGLQEGIARSWMNSYVSRPEVKARVDEMLKELHGVKEVTPEMVEKYAMDKAYGISHSDQFTNSSIIEENIEGLVGIENNSFLEARNLFDSDLSITMPDGQQFSVNDLRDFDMFRIMPAYDRRVNGDIAIMGSTGKTTKELKDEILALKAKAEGDGKKTGEVHALMDTVKILTGRARRNQDTVWETSLRAINDLGFFAKNAYMGAQNITEIAGMIVTGNVRALGHGIPILRDTLYKSKPVSAKELKELHASLFGKEVDQLIRPKRADIVQRLREATDTGPAVANIVGTLKYSTQELAARSPWTKLLNGTTNYLLDAARQGMLGDVISATLTGKTTRWEKEGFLRGASVTPEQMAGIKSLIKEHMVRGEDGKFTVKDKQAFSMDPRAMDLWRLADKVADEAMLRPHKVSLQDSHAFGALGKMVMQFKSFTIKSLNSKFLRTFYDGYKNNRAIDAALSIITSMGLAGGFYAMAAHVKAYALPKEKRKEYLERALDPTMIAHAALSRSSQLGAPLAMVDLVGGVLGFESSKMARSTILPKDTVKERDPNKPYTSREVMGAMGSNLLEQMPSAGFVANVGATLMNAAGVVNSPNKATEQDFMTGLMNSTKELVPNDPLTQQLVLKIYEANGVNLRERRK

Tests used:
[1] = biological target: the molecule itself; assay: AUC + other: dynamic light scattering
[2] = biological target: B1; assay: AUC

**Q.** Which “stoichiometry N” value [1] does the source give for B1 here?
**A.** 6

**Q.** How did the “stoichiometry N” value [2] turn out when B2 was run?
**A.** 6 gp16 monomers per gp15 hexamer
